Test results published in PMC7021693.
Where two headings read alike, the source gives them in different places. Each block holds one substance with its values, some of them ahead of it.

Legend:
VEGF-A165 (Homo sapiens) [1] = molecular target: VEGF-A165 (Homo sapiens) (UniProt P15692); conditions: cited from earlier work
VEGF-A165 (Homo sapiens) [2] = molecular target: VEGF-A165 (Homo sapiens) (UniProt P15692); conditions: cited from earlier work; remark: listed apart in the source
[3] = SEC; as a9; sample: ziv-AFL diluted in GndHCl 8 M
[4] = SEC; as a9; sample: ziv-AFL diluted in NaCl 1.5 M
[5] = SEC; as a9; sample: ziv-AFL 25 mg/mL, 60 °C for 1 h
[6] = SEC; as a9; sample: ziv-AFL 25 mg/mL, 60 °C for 3 h
[7] = SEC; as a9; sample: ziv-AFL medicine adjusted to pH 5.2
[8] = molecular target: ziv-aflibercept (Zaltrap, 25 mg/mL) (human); experiment: SEC; as a9; sample: ziv-AFL diluted in GndHCl 8 M
[9] = molecular target: ziv-aflibercept (Zaltrap, 25 mg/mL) (human); experiment: SEC; as a9; sample: ziv-AFL diluted in NaCl 1.5 M
[10] = molecular target: ziv-aflibercept (Zaltrap, 25 mg/mL) (human); experiment: SEC; as a9; sample: ziv-AFL 25 mg/mL, 60 °C for 1 h
[11] = molecular target: ziv-aflibercept (Zaltrap, 25 mg/mL) (human); experiment: SEC; as a9; sample: ziv-AFL 25 mg/mL, 60 °C for 2 h
[12] = molecular target: ziv-aflibercept (Zaltrap, 25 mg/mL) (human); experiment: SEC; as a9; sample: ziv-AFL 25 mg/mL, 60 °C for 3 h
[13] = molecular target: ziv-aflibercept (Zaltrap, 25 mg/mL) (human); experiment: SEC; as a9; sample: ziv-AFL medicine adjusted to pH 5.2
[14] = molecular target: ziv-aflibercept (Zaltrap, 25 mg/mL) (human); experiment: SEC; as a9; sample: ziv-AFL medicine adjusted to pH 7.2
[15] = molecular target: ziv-aflibercept (Zaltrap, 25 mg/mL) (human); experiment: SEC; as a9; sample: ziv-AFL 25 mg/mL, 1 freeze-thaw cycle
[16] = molecular target: ziv-aflibercept (Zaltrap, 25 mg/mL) (human); experiment: SEC; as a9; sample: ziv-AFL 25 mg/mL, 2 freeze-thaw cycles
VEGF [17] = molecular target: VEGF (UniProt P15692); experiment: ELISA; as a1; sample: ziv-AFL medicine adjusted to pH 7.2 with 1 M NH3
VEGF [18] = molecular target: VEGF (UniProt P15692); experiment: ELISA; as a1; sample: ziv-AFL medicine adjusted to pH 5.2 with 0.1 M HCl
[19] = molecular target: ziv-aflibercept (Zaltrap, 25 mg/mL) (human); experiment: SEC; as a9; sample: ziv-AFL 25 mg/mL, light irradiation (250 W/m^2) for 12 h
[20] = molecular target: ziv-aflibercept (Zaltrap, 25 mg/mL) (human); experiment: as above; remark: listed apart in the source
[21] = molecular target: ziv-aflibercept (Zaltrap, 25 mg/mL) (human); experiment: SEC; SE-HPLC/DAD, SEC-5 column, 25 °C, 150 mM phosphate pH 7.0, 0.35 mL/min, 1 ul injected; masses estimated from the column calibration; sample: fresh (control) ziv-AFL 25 mg/mL

Sequence of ziv-aflibercept (Zaltrap, 25 mg/mL) (Fc fusion) (chain): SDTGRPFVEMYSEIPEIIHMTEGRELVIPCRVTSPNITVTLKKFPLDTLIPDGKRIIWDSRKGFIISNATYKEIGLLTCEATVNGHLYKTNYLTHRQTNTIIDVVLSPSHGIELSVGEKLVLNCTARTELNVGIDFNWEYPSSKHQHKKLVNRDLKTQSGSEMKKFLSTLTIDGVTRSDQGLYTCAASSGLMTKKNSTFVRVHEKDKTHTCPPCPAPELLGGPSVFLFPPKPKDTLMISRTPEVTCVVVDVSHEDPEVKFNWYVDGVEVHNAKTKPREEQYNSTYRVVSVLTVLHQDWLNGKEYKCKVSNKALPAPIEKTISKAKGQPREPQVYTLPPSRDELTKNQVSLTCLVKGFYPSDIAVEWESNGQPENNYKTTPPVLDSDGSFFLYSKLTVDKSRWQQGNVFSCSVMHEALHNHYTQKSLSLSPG
Sequence of ziv-aflibercept (Zaltrap, 25 mg/mL) (chain): as above
Sequence of VEGF-A165 (Homo sapiens) (P15692 whole entry): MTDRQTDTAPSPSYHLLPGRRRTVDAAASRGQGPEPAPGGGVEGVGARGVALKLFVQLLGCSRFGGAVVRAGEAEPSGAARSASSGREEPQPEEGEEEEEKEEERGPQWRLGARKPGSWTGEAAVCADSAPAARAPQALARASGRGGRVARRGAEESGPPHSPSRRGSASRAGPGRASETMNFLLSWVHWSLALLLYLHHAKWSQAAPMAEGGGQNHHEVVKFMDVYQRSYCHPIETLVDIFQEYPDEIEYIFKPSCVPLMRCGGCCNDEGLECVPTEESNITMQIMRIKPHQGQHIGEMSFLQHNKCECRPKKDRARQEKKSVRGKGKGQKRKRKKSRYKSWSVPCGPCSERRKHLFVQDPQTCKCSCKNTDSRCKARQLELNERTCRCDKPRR
Sequence of VEGFR1 (P17948 27-1338): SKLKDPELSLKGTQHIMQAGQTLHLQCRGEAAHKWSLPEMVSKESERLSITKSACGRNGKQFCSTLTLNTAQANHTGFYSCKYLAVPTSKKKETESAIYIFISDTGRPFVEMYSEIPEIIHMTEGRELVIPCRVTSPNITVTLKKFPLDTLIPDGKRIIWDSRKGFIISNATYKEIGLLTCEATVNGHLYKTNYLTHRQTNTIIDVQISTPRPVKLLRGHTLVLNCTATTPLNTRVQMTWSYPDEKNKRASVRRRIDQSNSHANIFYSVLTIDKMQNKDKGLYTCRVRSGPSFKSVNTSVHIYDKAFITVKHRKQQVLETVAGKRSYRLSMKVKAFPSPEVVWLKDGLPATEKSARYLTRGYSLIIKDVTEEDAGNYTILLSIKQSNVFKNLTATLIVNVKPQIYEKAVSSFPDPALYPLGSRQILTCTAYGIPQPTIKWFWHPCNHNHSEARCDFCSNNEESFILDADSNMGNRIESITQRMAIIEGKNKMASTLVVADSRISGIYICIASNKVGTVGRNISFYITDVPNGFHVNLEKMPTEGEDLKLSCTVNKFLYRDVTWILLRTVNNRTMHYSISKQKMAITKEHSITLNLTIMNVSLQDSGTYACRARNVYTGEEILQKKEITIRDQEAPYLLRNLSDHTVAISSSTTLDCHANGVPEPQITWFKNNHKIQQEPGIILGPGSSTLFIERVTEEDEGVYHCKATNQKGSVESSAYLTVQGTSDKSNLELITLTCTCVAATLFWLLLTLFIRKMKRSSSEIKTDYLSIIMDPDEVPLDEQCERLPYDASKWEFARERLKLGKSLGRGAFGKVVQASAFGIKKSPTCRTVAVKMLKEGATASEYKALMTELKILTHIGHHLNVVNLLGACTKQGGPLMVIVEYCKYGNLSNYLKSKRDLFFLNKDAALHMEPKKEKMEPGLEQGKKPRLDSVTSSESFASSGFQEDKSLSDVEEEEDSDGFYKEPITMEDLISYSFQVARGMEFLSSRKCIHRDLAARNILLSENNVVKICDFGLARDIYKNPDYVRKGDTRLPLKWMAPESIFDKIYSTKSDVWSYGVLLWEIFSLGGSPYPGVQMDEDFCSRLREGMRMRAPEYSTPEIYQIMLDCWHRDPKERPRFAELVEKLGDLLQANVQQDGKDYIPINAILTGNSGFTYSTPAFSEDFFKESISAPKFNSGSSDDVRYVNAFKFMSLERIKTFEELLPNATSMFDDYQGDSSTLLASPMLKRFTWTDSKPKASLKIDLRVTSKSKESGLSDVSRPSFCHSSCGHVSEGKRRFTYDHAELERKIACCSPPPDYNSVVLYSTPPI
Sequence of VEGFR2 (P35968 20-1356): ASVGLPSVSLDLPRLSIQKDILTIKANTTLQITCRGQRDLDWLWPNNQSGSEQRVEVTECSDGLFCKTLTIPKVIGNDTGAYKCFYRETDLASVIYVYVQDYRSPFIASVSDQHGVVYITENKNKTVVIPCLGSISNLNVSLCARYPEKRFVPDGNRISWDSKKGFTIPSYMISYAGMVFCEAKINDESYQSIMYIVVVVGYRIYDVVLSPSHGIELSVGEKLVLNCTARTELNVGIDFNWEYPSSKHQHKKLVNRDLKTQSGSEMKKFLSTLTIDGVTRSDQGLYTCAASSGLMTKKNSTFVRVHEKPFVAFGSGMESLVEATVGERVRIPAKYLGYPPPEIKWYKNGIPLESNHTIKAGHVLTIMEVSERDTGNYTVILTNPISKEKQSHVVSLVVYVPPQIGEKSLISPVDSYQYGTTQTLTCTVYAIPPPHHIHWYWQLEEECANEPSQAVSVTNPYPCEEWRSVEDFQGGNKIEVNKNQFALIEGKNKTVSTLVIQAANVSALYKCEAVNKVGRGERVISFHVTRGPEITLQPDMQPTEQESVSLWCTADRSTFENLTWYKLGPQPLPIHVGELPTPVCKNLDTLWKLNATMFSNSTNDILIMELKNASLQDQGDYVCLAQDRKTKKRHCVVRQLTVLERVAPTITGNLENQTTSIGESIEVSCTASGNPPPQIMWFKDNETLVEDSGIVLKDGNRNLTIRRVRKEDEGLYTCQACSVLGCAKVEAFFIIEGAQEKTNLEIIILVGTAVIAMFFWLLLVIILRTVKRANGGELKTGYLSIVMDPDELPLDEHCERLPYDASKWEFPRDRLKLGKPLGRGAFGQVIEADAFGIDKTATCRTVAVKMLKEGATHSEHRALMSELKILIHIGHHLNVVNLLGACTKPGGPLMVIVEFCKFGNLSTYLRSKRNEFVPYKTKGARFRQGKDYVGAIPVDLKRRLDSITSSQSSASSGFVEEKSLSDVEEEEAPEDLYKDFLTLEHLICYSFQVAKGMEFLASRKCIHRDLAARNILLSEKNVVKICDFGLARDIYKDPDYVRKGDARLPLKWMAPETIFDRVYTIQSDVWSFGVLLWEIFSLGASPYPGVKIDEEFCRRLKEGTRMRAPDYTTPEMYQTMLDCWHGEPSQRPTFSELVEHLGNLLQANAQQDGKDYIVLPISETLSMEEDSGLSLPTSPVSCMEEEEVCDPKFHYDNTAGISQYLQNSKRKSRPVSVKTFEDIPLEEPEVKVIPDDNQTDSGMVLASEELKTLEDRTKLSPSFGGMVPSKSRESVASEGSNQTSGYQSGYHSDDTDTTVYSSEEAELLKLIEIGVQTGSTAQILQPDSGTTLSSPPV

Substance: VEGFR1 (from UniProt P17948)
Kd (VEGF-A165 (Homo sapiens) [1]): 0.00933 nM

Substance: VEGFR2 (from UniProt P35968)
Kd (VEGF-A165 (Homo sapiens) [2]): 0.0888 nM

Substance: ziv-aflibercept (Zaltrap, 25 mg/mL)
abundance of non-natural HMW aggregates (% of total peak area) [3]: 7.2% and a higher order of aggregation at 5.46 min (5.56%)
abundance of non-natural HMW aggregates (% of total peak area) [4]: 1.1%
abundance of non-natural HMW aggregates (% of total peak area) [5]: 22.1%
abundance of non-natural HMW aggregates (% of total peak area) [6]: 55.2%
abundance of non-natural HMW aggregates (% of total peak area) [7]: 0.8%

abundance of dimer (% of total peak area) [8]: 19%
abundance of dimer (% of total peak area) [9]: 1.4%
abundance of dimer (% of total peak area) [10]: 8%
abundance of dimer (% of total peak area) [11]: 7.8%
stoichiometry N [11]: 10
abundance of dimer (% of total peak area) [12]: 7.7%
abundance of dimer (% of total peak area) [13]: 2%
abundance of dimer (% of total peak area) [14]: 1.8%
abundance of dimer (% of total peak area) [15]: 1.9%
abundance of dimer (% of total peak area) [16]: 2.1%
remaining biological activity (ELISA against the control, test samples at 10 and 100 µg/ml) (VEGF [17]): 36%
remaining biological activity (ELISA against the control, test samples at 10 and 100 µg/ml) (VEGF [18]): 25%
abundance of dimer (% of total peak area) [19]: 12.4%
abundance of dimer (% of total peak area) [20]: 12.2%
abundance of dimer (% of total peak area) [21]: 1.9%
stoichiometry N [21]: 2
Substance: ziv-aflibercept (Zaltrap, 25 mg/mL) (Fc fusion)
